This note sets out measurements from article PMC12045370.

Assay [1] addresses microtubules grown from purified bovine brain tubulin (bovine) (UniProt Q6B856). Put plainly: optical trap rupture force assay; untreated kinetochores on anti-penta-His beads; dynamic microtubules grown from coverslip-anchored GMPCPP seeds; BRB80, 1 mM GTP, 23°C; force ramp 0.25 pN/s until detachment.
For assay [2] the target is unchanged. Description: optical trap rupture force assay; benzonase-treated kinetochores on anti-penta-His beads; dynamic microtubules grown from coverslip-anchored GMPCPP seeds; BRB80, 1 mM GTP, 23°C; force ramp 0.25 pN/s until detachment.

UniProt Q6B856, sequence (Q6B856 whole entry, looked up): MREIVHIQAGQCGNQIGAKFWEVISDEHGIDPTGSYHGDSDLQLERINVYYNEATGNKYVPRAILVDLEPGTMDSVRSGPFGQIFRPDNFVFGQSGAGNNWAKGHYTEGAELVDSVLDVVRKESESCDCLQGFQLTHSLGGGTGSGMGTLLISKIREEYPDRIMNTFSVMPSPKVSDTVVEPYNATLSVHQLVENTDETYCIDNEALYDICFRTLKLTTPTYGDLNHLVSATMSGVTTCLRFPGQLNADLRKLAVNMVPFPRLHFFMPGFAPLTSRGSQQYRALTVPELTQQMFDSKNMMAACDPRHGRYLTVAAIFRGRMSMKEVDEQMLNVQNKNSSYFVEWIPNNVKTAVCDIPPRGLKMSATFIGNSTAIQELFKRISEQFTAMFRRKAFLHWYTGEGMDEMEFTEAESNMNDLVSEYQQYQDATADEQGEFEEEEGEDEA

Turning to “S. cerevisiae kinetochore particles purified via Dsn1-6His-3M3DK (from UniProt P40568 1-576) (complex)”, the median rupture force in assay [1] worked out at 7.2.

For “K. marxianus kinetochore particles purified via Dsn1-6His-3M3DK (from UniProt A0ABX6F0Z3 1-547) (complex)”, the median rupture force came out at 6.4 pN in assay [2] and 7.5 pN in assay [1].
